For test [1], the system named is Zea mays. Briefly: Post-emergence glyphosate tolerance of dgt-28 transformed T0 corn. The test is classed as in vivo. Here is the method: Herbicide Tolerance in dgt-28 Transformed Corn. Zea mays dgt-28 transformation events (T0) were allowed to acclimate in the greenhouse and were grown until plants had transitioned from tissue culture to greenhouse growing conditions (i.e., 2-4 new, normal looking leaves had emerged from the whorl). Plants were grown at 27° C. under 16 hour light: 8 hour dark conditions in the greenhouse. The plants were then treated with commercial formulations of DURANGO DMA™ (containing the herbicide glyphosate) with the addition of 2% w/v ammonium-sulfate. Herbicide applications were made with a track sprayer at a spray volume of 187 L/ha, 50-cm spray height. T0 plants were sprayed with a range of glyphosate from 280-4480 g ae/ha glyphosate, which is capable of significant injury to untransformed corn lines. A lethal dose is defined as the rate that causes >95% injury to the B104 inbred.
Post-Emergence Herbicide Tolerance in dgt-28 Transformed T0 Corn. T0 events of dgt-28 linked with TraP4, TraP5, TraP8 and TraP23 were generated by Agrobacterium transformation and were allowed to acclimate under controlled growth chamber conditions until 2-4 new, normal looking leaves had emerged from the whorl. Plants were assigned individual identification numbers and sampled for copy number analyses of both dgt-28 and aad-1. Based on copy number analyses, plants were selected for protein expression analyses. […]

In test [2] the test system is tobacco (cv. Petit Havana). Briefly: Postemergence glyphosate tolerance of dgt-28 transformed T1 and T2 tobacco. The test is classed as in vivo. Conditions: 14 DAT, 2240 g ae/ha glyphosate (DURANGO DMA). The text has this:
Postemergence herbicide tolerance in dgt-28 transformed T1 tobacco. T1 resistant plants from each event used in the progeny testing were given unique identifiers and sampled for zygosity analyses of the dgt-28 gene. Zygosity data were used to assign 2 hemizygous and 2 homozygous replicates to each rate of glyphosate applied allowing for a total of 4 replicates per treatment. These plants were compared against wildtype Petite havana tobacco. All plants were sprayed with a track sprayer set at 187 L/ha. The plants were sprayed from a range of 560-4480 g ae/ha DURANGO DMA™. All applications were formulated in water with the addition of 2% w/v ammonium sulfate (AMS). Plants were evaluated at 7 and 14 days after treatment. Plants were assigned an injury rating with respect to overall visual stunting, chlorosis, and necrosis. The T1 generation is segregating, so some variable response is expected due to difference in zygosity.
Rates of DURANGO DMA™ ranging from 420-3360 g ae/ha glyphosate were applied to 2-3 leaf tobacco as previously described.

The subject of test [3] is Arabidopsis. Briefly: dgt-28, dgt-32, dgt-33, dgt-3, dgt-7 transformed Arabidopsis (T1, T2, T3) response to postemergence glyphosate, % visual injury. The test is classed as in vivo, Arabidopsis thaliana. Conditions: T1 Arabidopsis. Put shortly: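 Transgenic T1, T2 and T3 Arabidopsis (low-copy events for T2/T3, hemizygous and homozygous in T2) sprayed postemergence with glyphosate at 105, 420, 1,680 or 3,360 g ae/ha. Visual injury scored 2 weeks after treatment as mean, SD and range. Non-transformed Columbia served as sensitive control.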

In test [4] the test system is Arabidopsis. Nature of the test: dgt-31, dgt-32, dgt-33 v1 transformed T1 Arabidopsis response to glyphosate, % visual injury 2 WAT. The test is classed as in vivo, Arabidopsis thaliana. The conditions noted are these: with TraP8 and with TraP14 / TraP24 respectively. The procedure:
Selection of transformed plants. Freshly harvested T1 seed [dgt-31, dgt-32, and dgt-33 v1 gene] were allowed to dry at room temperature and shipped to Indianapolis for testing. T1 seed was sown in 26.5×51-cm germination trays (T.O. Plastics Inc., Clearwater, Minn.), each receiving a 200 mg aliquots of stratified T1 seed (˜10,000 seed) that had previously been suspended in 40 mL of 0.1% agarose solution and stored at 4° C. for 2 days to complete dormancy requirements and ensure synchronous seed germination.
Sunshine Mix LP5 (Sun Gro Horticulture Inc., Bellevue, Wash.) was covered with fine vermiculite and subirrigated with Hoagland's solution until wet, then allowed to gravity drain. Each 40 mL aliquot of stratified seed was sown evenly onto the vermiculite with a pipette and covered with humidity domes (KORD™ Products, Bramalea, Ontario, Canada) for 4-5 days. Domes were removed once plants had germinated prior to initial transformant selection using glufosinate postemergence spray (selecting for the co-transformed dsm-2 gene).
Six days after planting (DAP) and again 10 DAP, T1 plants (cotyledon and 2-4-lf stage, respectively) were sprayed with a 0.1% solution of IGNITE™ herbicide (280 g ai/L glufosinate, Bayer Crop Sciences, Kansas City, Mo.) at a spray volume of 10 mL/tray (703 L/ha) using a DeVilbiss™ compressed air spray tip to deliver an effective rate of 200 g ae/ha glufosinate per application. Survivors (plants actively growing) were identified 4-7 days after the final spraying. Surviving plants were transplanted individually into 3-inch pots prepared with potting media (Metro Mix 360™). Plants reared in the greenhouse at least 1 day prior to tissue sampling for copy number analyses.
T1 plants were sampled and copy number analysis for the dgt-31, dgt-32, and dgt-33 v1 gene were completed. T1 plants were then assigned to various rates of glyphosate so that a range of copies were among each rate. For Arabidopsis, 26.25 g ae/ha glyphosate is an effective dose to distinguish sensitive plants from ones with meaningful levels of resistance. Elevated rates were applied to determine relative levels of resistance (105, 420, 1680, or 3360 g ae/ha).
All glyphosate herbicide applications were made by track sprayer in a 187 L/ha spray volume. Glyphosate used was of the commercial Durango dimethylamine salt formulation (480 g ae/L, Dow AgroSciences, LLC).
T1 plants selected above were subsequently transplanted to individual pots and sprayed with various rates of commercial glyphosate. Table 16 compares the response of dgt-31, dgt-32, and dgt-33 v1 and control genes to impart glyphosate resistance to Arabidopsis T1 transformants. Response is presented in terms of % visual injury 2 WAT. […] An arithmetic mean and standard deviation is presented for each treatment. […]

In test [5] the test system is chloroplasts of tobacco cells. Briefly: Tobacco transient assay: confocal microscopy of TraP-YFP localization. The test is classed as cell-based, Nicotiana benthamiana. Conditions: Agrobacterium-infiltrated tobacco leaves. The text has this:
The Trap8 and TraP9 chimeric chloroplast transit peptide sequences were initially tested via a transient in planta assay. Polynucleotide sequences which encode the Trap8 (SEQ ID NO:5) and TraP9 (SEQ ID NO:6) chimeric chloroplast transit peptide sequences were synthesized. A linker sequence (SEQ ID NO:7) was incorporated between the TraP sequence and the yfp coding sequence. The resulting constructs contained two plant transcription units (PTU). The first PTU was comprised of the Arabidopsis thaliana Ubiquitin 10 promoter (AtUbi10 promoter; Callis, et al., (1990) J. Biol. Chem., 265: 12486-12493), TraP-yellow fluorescent protein fusion gene (TraP-YFP; US Patent App. 2007/0298412), and Agrobacterium tumefaciens ORF 23 3′ untranslated region (AtuORF23 3′UTR; U.S. Pat. No. 5,428,147). […]
Agrobacterium-infiltrated tobacco leaves were severed from the plant, and placed into a petri-dish with water to prevent dehydration. The infiltrated tobacco leaves were observed under blue light excitation with long-pass filter glasses held in place using a Dark Reader Hand Lamp™ (Clare Chemical Research Co.; Dolores, Colo.) to identify undamaged areas of the leaf that were successfully expressing the YFP reporter proteins. […]

The subject of test [6] is YFP protein. Briefly: Western blot of infiltrated tobacco leaves (YFP expression, transit peptide processing). Further details: species or system Nicotiana benthamiana. Conditions: infiltrated tobacco leaf tissue. The procedure: Samples of the infiltrated tobacco plants were assayed via Western blotting. Leaf punches were collected and subjected to bead-milling. About 100-200 mg of leaf material was mixed with 2 BBs (steel balls) (Daisy; Rogers, Ark.) and […] of PBST for 3 minutes in a Kleco™ bead mill. The samples were then spun down in a centrifuge at 14,000×g at 4° C. The supernatant was removed and either analyzed directly via Western blot or immunoprecipitated. The immunoprecipitations were performed using the Pierce Direct IP Kit™ (Thermo Scientific; Rockford, Ill.) following the manufacturer's protocol. Approximately, 50 μg of anti-YFP was bound to the resin. The samples were incubated with the resin overnight at 4° C. Next, the samples were washed and eluted the following morning and prepped for analysis by combining equal volumes of 2×8M Urea sample buffer and then boiling the samples for 5 minutes. The boiled samples were run on a 4-12% SDS-Bis Tris gel in MOPS buffer for 40 minutes. The gel was then blotted using the Invitrogen iBlot™ (Life Technologies; Carlsbad, Calif.) following the manufacturer's protocol. The blotted membrane was blocked for 10 minutes using 5% non-fat dry milk in PBS-Tween solution. The membrane was probed with the primary antibody (monoclonal anti-GFP in rabbit) used at a 1:1000 dilution in the 5% non-fat dry milk in PBS-Tween solution for 1 hour. […]
On the technique in general: Immunoblotting shows a protein as a band on a membrane.

Data on four molecules can be found in US9493781B2, “Synthetic brassica-derived chloroplast transit peptides” (DOW AGROSCIENCES LLC, priority 2012, dated 2016).

With `O=C(O)CNCP(=O)(O)O` [glyphosate], in test [1], the “Glyphosate rate that controlled non-transformed plants” value is at least 280 g ae/ha.

B1: TraP23: chloroplast transit peptide TraP23 v2, SEQ ID NO:39 (protein)
chain: MAQINKSANGVRNASLISNFSNTRQAKSPFSLSCGTRLKNSSRGLKKVAVRLIGSRVKVSAS
modifications: Chloroplast Transit Peptide
B1: the “% Injury Ave” value in test [2] came out at 9.5%.

B2: DGT-33: Streptomyces EPSP synthase enzyme (GENBANK NC_010572) (protein, listed as Streptomyces griseus)
chain: MGAVTVIDIPGSKSVTARALFLAAAADGTTTLLRPLRSDDTEGFAEGLKNLGYAVEQEADRWRVEGRPDGPAAPDADVYCRDGATTARFLPTLVAAAASGTYRFDASAQMRRRPLAPLTRALTALGVDLRHGGEEGHHPLTVRAAGIEGGDVVLDAGESSQYLTALLMLGPLTAKGLRIEVTDLVSAPYVEITLAMMRDFGVDVSREGNTFTVPSGGYRATAYAVEPDASTASYFFAAAALTGREVTVPGLGIGALQGDLRFVDVLRDMGAEVSVGPDATTVRSTGRLRGITVTMRDISDTMPTLAAIAPHADGPVRIEDVANTRVKECDRLEACAQNLRAMGITVHTGHDWIEILPGTPKPTGIATHGDHRIVMSFAVAGLLTPGLTYDDPGCVRKTFPRFHEVFADFAASPQA
In the case of B2, in test [3], the “Glyphosate tolerance” value is “significant tolerance to glyphosate”. The “Herbicide tolerance” value in test [4] is reported as “robust tolerance to glyphosate”.

B3: TraP9: chimeric chloroplast transit peptide SEQ ID NO:4; N-terminus from Brassica rapa EPSPS CTP, C-terminus from Brassica napus (protein)
chain: MAQASRICQNPCVISNLPKSNHRKSPFSVSLKTHQPRASSWGLKKSGTMLNGSVIRPVKVTASVS
modifications: TraP9 chimeric chloroplast transit peptide
notes: N-terminus from Brassica rapa EPSPS CTP, C-terminus from Brassica napus
Turning to B3, the “Localization of YFP fluorescence in tobacco leaf cells” value in test [5] is “accumulated within the chloroplasts”. In addition, the “Processing (cleavage) of transit peptide from YFP by Western blot” value in test [6] is given as “processed”.
